This is an account of results in patent publication US20200407440A1, “AMATOXIN ANTIBODY-DRUG CONJUGATES AND USES THEREOF” (Magenta Therapeutics, Inc., priority 2019, published 2020).

Assay [1] addresses human CD2 (human) (UniProt P06729). Put plainly: cell-based or functional assay.
Assay [2] shares this target. Briefly: flow cytometry of primary human T cells at day 5; competition with the staining anti-CD2 clone RPA-2.10 [left panel]. In general terms: Flow cytometry measures light scatter and fluorescence of single cells or particles in a stream.

UniProt P06729, sequence (P06729 25-351 limits assumed): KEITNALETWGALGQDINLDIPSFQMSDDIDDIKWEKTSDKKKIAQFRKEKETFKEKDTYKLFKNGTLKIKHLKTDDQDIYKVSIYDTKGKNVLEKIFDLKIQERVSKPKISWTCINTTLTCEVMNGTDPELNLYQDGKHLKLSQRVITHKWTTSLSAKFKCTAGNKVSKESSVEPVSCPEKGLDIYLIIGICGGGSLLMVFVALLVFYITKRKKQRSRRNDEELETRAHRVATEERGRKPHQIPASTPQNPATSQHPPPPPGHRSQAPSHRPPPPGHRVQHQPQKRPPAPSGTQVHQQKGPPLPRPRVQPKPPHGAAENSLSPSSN

In the assay with human CD2 (human) [1], “CD2 RPA2.10 D265C/H435A ADC A (antibody)” came in with a % Efficacy, primary human T cell killing assay of 85.7% and an IC50 (pM), primary human T cell killing assay (5 days, flow cytometry) of 54 pM. In the assay with human CD2 (human) [2], the IC50 (read off the curve) is 0.1 nM.

With CD2 RPA naked (antibody), the IC50 (read off the curve) with human CD2 (human) [2] amounted to 0.08 nM.
